The numbers were not newly measured in paper doi:10.1101/2021.10.04.463074, which cites them from elsewhere.

The target of this data set is Asp85 (UniProt position 98, WARYADWLFTT). The settings on record: resting (ground) state of bR, protonated Schiff base, all-trans retinal.

On to “Bacteriorhodopsin (bR) (Halobacterium salinarum (named Halobacterium halobium only in titles of cited references))”, for which the pKa is 2 to 3.
